The target in the experiment is African swine fever virus (ASFV) decapping enzyme g5R protein, recombinant wild type (residues 1 to 250) (African swine fever virus (ASFV)) (UniProt P32092). As to the kind of experiment: cross-linking.

Stoichiometry N data for one substance are collected here from paper PMC9131872.

For orientation: stoichiometry N means the number of molecules, sites or subunits per partner or assembly. Regarding “African swine fever virus (ASFV) decapping enzyme g5R protein, recombinant wild type (residues 1 to 250) (from UniProt P32092 1-250)”, the stoichiometry N stood at 2.
